The target of one assay is RANKL (Homo sapiens) (UniProt O14788). The following applies: cited from earlier work.
A further assay addresses T1, recombinant human RANK (human, UniProt Q9Y6Q6 30-212).
T1 construct: human RANK, recombinant, R&D Systems cat# 683-RK; The vendor's product 683-RK is, as far as I recall, an Fc chimera of the RANK extracellular domain (human IgG1 Fc, C-terminal); also called rRANK; source: bought: R&D Systems (cat# 683-RK)
T1 sequence (looked up): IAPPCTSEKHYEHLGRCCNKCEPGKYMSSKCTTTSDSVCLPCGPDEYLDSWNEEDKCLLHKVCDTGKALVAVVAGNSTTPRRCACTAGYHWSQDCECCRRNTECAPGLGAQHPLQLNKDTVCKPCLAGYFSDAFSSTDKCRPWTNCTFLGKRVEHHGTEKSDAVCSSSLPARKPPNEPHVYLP
Description: ELISA; polyvinyl 96-well plates coated with 500 ng/well recombinant human RANK; RANKL (500 ng/mL in PBS-T with 0.1% BSA) pre-incubated with serially diluted GM-0111 for about 16 hrs at 4°C, then 1 hr at 37°C on the RANK-coated wells; bound RANKL detected with anti-RANKL antibody and HRP-conjugated anti-goat IgG, absorbance at 450 nm. The settings on record: both partners purified. On the technique in general: An ELISA detects its analyte on a solid surface through an enzyme-linked reagent.

For the molecule OPG (from UniProt O00300), the Kd with RANKL (Homo sapiens) was 4.24 nM.

B1: recombinant human RANKL (ligand, UniProt O14788 140-317, looked up)
chain: IRAEKAMVDGSWLDLAKRSKLEAQPFAHLTINATDIPSGSHKVSLSSWYHDRGWAKISNMTFSNGKLIVNQDGFYYLYANICFRHHETSGDLATEYLQLMVYVTKTSIKIPSSHTLMKGGSTKYWSGNSEFHFYSINVGGFFKLRSGEEISIEVSNPSLLDPDQDATYFGAFKVRDID
notes: The vendor's product is, as far as I recall, a soluble extracellular fragment of human RANKL; also called rRANKL; source: bought: R&D Systems (cat# 390-TN)
With B1, in the assay with recombinant human RANK, the binding result is recorded as “binds”.

Broadly, the Kd is the free concentration of one partner at which half of the binding sites on the other are occupied at equilibrium, for simple one-to-one binding.

The values above are taken from paper PMC4911086 (PLoS ONE, 2016).
